For 94 variants, protein stability index results are on record in the supplement of paper PMC10567573.

B1: TRAF3IP2 (parent)
chain: PRPPSNPPARGTLKTSNLPEELRK
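Further: lentivirally expressed fusions sorted by FACS into six bins by GFP to DsRed ratio, PSI derived from sequencing read proportions per bin multiplied by bin number.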

Variants of B1 are the subject of this series. As to the kind of experiment: protein stability index of a GFP-peptide fusion (GPS, HEK-293T) (PSI 1-6); higher = more stable. The conditions noted are these: c terminus: a fixed tail appended.
For PRPPSNPPARDTLKTSNLPEELRK [G11D], the protein stability index was 4.86.
As for PRPPSNPPARPTLKTSNLPEELRK [G11P], the figure is 4.42; as for PRPPSNPPARLTLKTSNLPEELRK [G11L], 3.88.
The result for PRPPSNPPARSTLKTSNLPEELRK [G11S] reads 4.54.
As for PRPPSNPPARATLKTSNLPEELRK [G11A], the figure is 4.73; as for PRPPSNPPARYTLKTSNLPEELRK [G11Y], 4.28.
PRPPSNPPARFTLKTSNLPEELRK [G11F]: the protein stability index came out at 3.69.
Regarding PRPPSNPPARETLKTSNLPEELRK [G11E], the protein stability index was 4.96.
On to PRPPSNPPARVTLKTSNLPEELRK [G11V], for which the protein stability index was found to be 4.37.
As for PRPPSNPPARRTLKTSNLPEELRK [G11R], the protein stability index amounted to 3.85.
Consider PRPPSNPPARWTLKTSNLPEELRK [G11W], for which the protein stability index is 3.54.
As for PRPPSNPPARCTLKTSNLPEELRK [G11C], the figure is 4.25.
The result for PRPPSNPPARGTLWTSNLPEELRK [K14W] reads 4.58; that for PRPPSNPPARGTLLTSNLPEELRK [K14L], 5.17.
The result for PRPPSNPPARGTLTTSNLPEELRK [K14T] reads 5.09; that for PRPPSNPPARGTLDTSNLPEELRK [K14D], 5.37; that for PRPPSNPPARGTLFTSNLPEELRK [K14F], 4.84.
For PRPPSNPPARGTLMTSNLPEELRK [K14M], the protein stability index came to 4.94.
The result for PRPPSNPPARGTLETSNLPEELRK [K14E] reads 5.27; that for PRPPSNPPARGTLRTSNLPEELRK [K14R], 4.65; that for PRPPSNPPARGTLQTSNLPEELRK [K14Q], 5.21.
The result for PRPPSNPPARGTLHTSNLPEELRK [K14H] reads 5.22; that for PRPPSNPPARGTLATSNLPEELRK [K14A], 5.35; that for PRPPSNPPARGTLITSNLPEELRK [K14I], 4.82.
The result for PRPPSNPPARGTLGTSNLPEELRK [K14G] reads 4.68; that for PRPPSNPPARGTLVTSNLPEELRK [K14V], 5.17.
On to PRPPSNPPARGTLSTSNLPEELRK [K14S], for which the protein stability index turned out to be 5.4.
Take PRPPSNPPARGTLYTSNLPEELRK [K14Y]: the protein stability index was 4.77.
Take PRPPSNPPARGTLNTSNLPEELRK [K14N]: the protein stability index turned out to be 4.97.
The result for PRPPSNPPARGTLPTSNLPEELRK [K14P] reads 4.83; that for PRPPSNPPARGTLCTSNLPEELRK [K14C], 4.76.
In the case of PRPPSNPPARGTRKTSNLPEELRK [L13R], the protein stability index was determined as 4.6.
For the variant PRPPSNPPARGTEKTSNLPEELRK [L13E], the protein stability index came out at 5.04.
Regarding PRPPSNPPARGTMKTSNLPEELRK [L13M], the protein stability index turned out to be 5.06.
As for PRPPSNPPARGTNKTSNLPEELRK [L13N], the figure is 5.15; as for PRPPSNPPARGTCKTSNLPEELRK [L13C], 3.92.
As for PRPPSNPPARGTHKTSNLPEELRK [L13H], the figure is 4.36; as for PRPPSNPPARGTIKTSNLPEELRK [L13I], 4.6.
The result for PRPPSNPPARGTYKTSNLPEELRK [L13Y] reads 4.25; that for PRPPSNPPARGTDKTSNLPEELRK [L13D], 5.09; that for PRPPSNPPARGTWKTSNLPEELRK [L13W], 4.44.
Regarding PRPPSNPPARGTGKTSNLPEELRK [L13G], the protein stability index was 4.67.
The result for PRPPSNPPARGTSKTSNLPEELRK [L13S] reads 4.94; that for PRPPSNPPARGTTKTSNLPEELRK [L13T], 4.82; that for PRPPSNPPARGTVKTSNLPEELRK [L13V], 5.32.
Consider PRPPSNPPARGTAKTSNLPEELRK [L13A], for which the protein stability index stood at 4.52.
The result for PRPPSNPPARGTFKTSNLPEELRK [L13F] reads 4.37; that for PRPPSNPPARGTKKTSNLPEELRK [L13K], 4.79; that for PRPPSNPPARGTQKTSNLPEELRK [L13Q], 4.8.
As for PRPPSNPPARGTLKTSNRPEELRK [L18R], the protein stability index was determined as 4.56.
As for PRPPSNPPARGTLKTSNQPEELRK [L18Q], the figure is 5.08; as for PRPPSNPPARGTLKTSNVPEELRK [L18V], 5.06.
As for PRPPSNPPARGTLKTSNMPEELRK [L18M], the figure is 4.5; as for PRPPSNPPARGTLKTSNIPEELRK [L18I], 4.38; as for PRPPSNPPARGTLKTSNYPEELRK [L18Y], 5.14.
As for PRPPSNPPARGTLKTSNAPEELRK [L18A], the figure is 4.92.
With PRPPSNPPARGTLKTSNGPEELRK [L18G], the protein stability index is 4.96.
The result for PRPPSNPPARGTLKTSNSPEELRK [L18S] reads 5.62; that for PRPPSNPPARGTLKTSNFPEELRK [L18F], 4.72; that for PRPPSNPPARGTLKTSNHPEELRK [L18H], 4.8.
The result for PRPPSNPPARGTLKTSNKPEELRK [L18K] reads 5.26; that for PRPPSNPPARGTLKTSNDPEELRK [L18D], 4.67; that for PRPPSNPPARGTLKTSNWPEELRK [L18W], 4.2.
The result for PRPPSNPPARGTLKTSNTPEELRK [L18T] reads 4.96; that for PRPPSNPPARGTLKTSNNPEELRK [L18N], 4.71.
PRPPSNPPARGNLKTSNLPEELRK [T12N]: the protein stability index was found to be 4.42.
The result for PRPPSNPPARGILKTSNLPEELRK [T12I] reads 4.54; that for PRPPSNPPARGGLKTSNLPEELRK [T12G], 4.
As for PRPPSNPPARGYLKTSNLPEELRK [T12Y], the figure is 4.78; as for PRPPSNPPARGFLKTSNLPEELRK [T12F], 4.3; as for PRPPSNPPARGSLKTSNLPEELRK [T12S], 4.35.
For PRPPSNPPARGELKTSNLPEELRK [T12E], the protein stability index is 4.54.
Regarding PRPPSNPPARGCLKTSNLPEELRK [T12C], the protein stability index turned out to be 4.24.
Regarding PRPPSNPPARGWLKTSNLPEELRK [T12W], the protein stability index turned out to be 3.65.
For the variant PRPPSNPPARGDLKTSNLPEELRK [T12D], the protein stability index was 4.88.
PRPPSNPPARGKLKTSNLPEELRK [T12K]: the protein stability index came out at 4.7.
As for PRPPSNPPARGMLKTSNLPEELRK [T12M], the figure is 4.56; as for PRPPSNPPARGHLKTSNLPEELRK [T12H], 4.75.
The result for PRPPSNPPARGRLKTSNLPEELRK [T12R] reads 4.58; that for PRPPSNPPARGVLKTSNLPEELRK [T12V], 4.41.
As for PRPPSNPPARGALKTSNLPEELRK [T12A], the protein stability index came out at 4.66.
Take PRPPSNPPARGQLKTSNLPEELRK [T12Q]: the protein stability index is 4.52.
Turning to PRPPSNPPARGLLKTSNLPEELRK [T12L], the protein stability index amounted to 4.65.
The result for PRPPSNPPARGTLKTGNLPEELRK [S16G] reads 4.79; that for PRPPSNPPARGTLKTDNLPEELRK [S16D], 4.83; that for PRPPSNPPARGTLKTFNLPEELRK [S16F], 4.47.
The result for PRPPSNPPARGTLKTENLPEELRK [S16E] reads 4.95; that for PRPPSNPPARGTLKTKNLPEELRK [S16K], 4.74.
With PRPPSNPPARGTLKTQNLPEELRK [S16Q], the protein stability index came to 4.48.
As for PRPPSNPPARGTLKTMNLPEELRK [S16M], the figure is 4.7.
The result for PRPPSNPPARGTLKTTNLPEELRK [S16T] reads 4.92.
Regarding PRPPSNPPARGTLKTLNLPEELRK [S16L], the protein stability index is 4.75.
As for PRPPSNPPARGTLKTWNLPEELRK [S16W], the figure is 3.47; as for PRPPSNPPARGTLKTYNLPEELRK [S16Y], 4.48.
